Assay results taken from patent US10500249B2, “Compositions and methods for preventing or treating diseases, conditions, or processes characterized by aberrant fibroblast proliferation and extracellular matrix deposition” (MOERAE MATRIX, INC., priority 2014, dated 2019).

How the values were obtained:
Assay in all cases: Kinase Profiling Assay
Format in all cases: biochemical
Conditions in all cases: 100 μM
[1] = molecular target: FGFR4 (h) (Homo sapiens, UniProt P22455)
Procedure, shortened: (§1)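 Specificity of MK2 inhibitory peptides is assessed against a panel of 266 human kinases. Kinase transfers a radiolabeled phosphate from ATP onto a positively charged substrate, which is trapped on a negatively charged filter and quantified by scintillation counting against full-activity control; duplicate determinations.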

[2] = molecular target: MAPKAP-K3 (h) (Homo sapiens, UniProt Q16644)
Procedure, shortened: as §1

[3] = molecular target: T1, IGF-1R (h), activated (Homo sapiens, UniProt P08069)
T1 construct: purchased Millipore
Procedure, shortened: as §1

[4] = molecular target: AMPKα2 (h) (Homo sapiens, UniProt P54646)
Procedure, shortened: as §1

[5] = molecular target: T2, TSSK2 (h) (Homo sapiens, UniProt Q96PF2)
T2 sequence (Q96PF2 1-358): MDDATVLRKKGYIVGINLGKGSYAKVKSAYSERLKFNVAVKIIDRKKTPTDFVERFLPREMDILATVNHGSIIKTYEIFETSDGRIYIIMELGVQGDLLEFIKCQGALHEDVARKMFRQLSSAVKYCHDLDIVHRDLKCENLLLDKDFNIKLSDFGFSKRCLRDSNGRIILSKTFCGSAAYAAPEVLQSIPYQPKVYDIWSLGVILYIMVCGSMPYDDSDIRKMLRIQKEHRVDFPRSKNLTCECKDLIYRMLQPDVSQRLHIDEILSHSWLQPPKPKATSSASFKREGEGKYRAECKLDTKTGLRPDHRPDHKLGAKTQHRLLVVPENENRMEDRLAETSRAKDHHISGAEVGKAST
Procedure, shortened: as §1

[6] = molecular target: Met(D1246N) (h) (Homo sapiens, UniProt P08581, D1228N)
Procedure, shortened: as §1

[7] = molecular target: Flt3(D835Y) (h) (Homo sapiens, UniProt P36888, D835Y)
Procedure, shortened: as §1

[8] = molecular target: T3, HIPK1 (h) (Homo sapiens, UniProt Q86Z02)
T3 construct: purchased Millipore
Procedure, shortened: as §1

[9] = molecular target: Src(T341M) (h) (Homo sapiens, UniProt P12931, T341M)
Procedure, shortened: as §1

[10] = molecular target: TrkA (h) (Homo sapiens, UniProt P04629)
Procedure, shortened: as §1

[11] = molecular target: T4, PRAK (h) (Homo sapiens, UniProt Q8IW41)
T4 sequence (Q8IW41 1-473): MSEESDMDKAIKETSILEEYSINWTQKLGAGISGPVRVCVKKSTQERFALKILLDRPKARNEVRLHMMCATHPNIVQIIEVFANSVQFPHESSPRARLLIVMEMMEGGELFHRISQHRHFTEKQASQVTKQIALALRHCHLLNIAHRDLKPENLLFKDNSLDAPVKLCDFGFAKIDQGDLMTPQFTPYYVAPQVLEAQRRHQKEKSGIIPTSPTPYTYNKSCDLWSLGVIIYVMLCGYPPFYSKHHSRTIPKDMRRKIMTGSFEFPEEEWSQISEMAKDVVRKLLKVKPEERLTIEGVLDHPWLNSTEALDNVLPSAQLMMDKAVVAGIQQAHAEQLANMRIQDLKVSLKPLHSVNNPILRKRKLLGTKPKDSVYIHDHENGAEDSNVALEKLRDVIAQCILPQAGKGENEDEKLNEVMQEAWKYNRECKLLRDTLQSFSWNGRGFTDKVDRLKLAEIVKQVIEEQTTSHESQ
Procedure, shortened: as §1

[12] = molecular target: T5, PDGFRβ (h) (Homo sapiens, UniProt P09619)
T5 construct: purchased Millipore
Procedure, shortened: as §1

[13] = molecular target: T6, cKit(D816H) (h) (Homo sapiens, UniProt P10721, D816H)
T6 construct: purchased Millipore
Procedure, shortened: as §1

[14] = molecular target: T7, CDK1/cyclinB (h) (Homo sapiens, UniProt P06493)
T7 construct: purchased Millipore
Procedure, shortened: as §1

[15] = molecular target: MEK1 (h) (Homo sapiens, UniProt Q02750)
Procedure, shortened: as §1

[16] = molecular target: BTK(R28H) (h) (Homo sapiens, UniProt Q06187, R28H)
Procedure, shortened: as §1

[17] = molecular target: T8, CDK5/p35 (h) (Homo sapiens, UniProt Q00535)
T8 construct: purchased Millipore
Procedure, shortened: as §1

[18] = molecular target: T9, MST3 (h) (Homo sapiens, UniProt Q9Y6E0)
T9 construct: purchased Millipore
Procedure, shortened: as §1

[19] = molecular target: T10, NEK7 (h) (Homo sapiens, UniProt Q8TDX7)
T10 construct: purchased Millipore
Procedure, shortened: as §1

[20] = molecular target: T11, PKCβI (h) (Homo sapiens, UniProt P05771)
T11 construct: purchased Millipore
Procedure, shortened: as §1

[21] = molecular target: T12, CaMKIIδ (h) (Homo sapiens, UniProt Q13557)
T12 construct: purchased Millipore
Procedure, shortened: as §1

[22] = molecular target: SAPK2a (h) (Homo sapiens, UniProt Q16539)
Procedure, shortened: as §1

[23] = molecular target: T13, CHK2(I157T) (h) (Homo sapiens, UniProt O96017, I157T)
T13 construct: purchased Millipore
Procedure, shortened: as §1

[24] = molecular target: T14, cKit(V654A) (h) (Homo sapiens, UniProt P10721, V654A)
T14 construct: purchased Millipore
Procedure, shortened: as §1

[25] = molecular target: T15, Hck (h) (Homo sapiens, UniProt P08631)
T15 construct: purchased Millipore
Procedure, shortened: as §1

[26] = molecular target: ZIPK (h) (Homo sapiens, UniProt O43293)
Procedure, shortened: as §1

T12 sequence (Q13557 whole entry): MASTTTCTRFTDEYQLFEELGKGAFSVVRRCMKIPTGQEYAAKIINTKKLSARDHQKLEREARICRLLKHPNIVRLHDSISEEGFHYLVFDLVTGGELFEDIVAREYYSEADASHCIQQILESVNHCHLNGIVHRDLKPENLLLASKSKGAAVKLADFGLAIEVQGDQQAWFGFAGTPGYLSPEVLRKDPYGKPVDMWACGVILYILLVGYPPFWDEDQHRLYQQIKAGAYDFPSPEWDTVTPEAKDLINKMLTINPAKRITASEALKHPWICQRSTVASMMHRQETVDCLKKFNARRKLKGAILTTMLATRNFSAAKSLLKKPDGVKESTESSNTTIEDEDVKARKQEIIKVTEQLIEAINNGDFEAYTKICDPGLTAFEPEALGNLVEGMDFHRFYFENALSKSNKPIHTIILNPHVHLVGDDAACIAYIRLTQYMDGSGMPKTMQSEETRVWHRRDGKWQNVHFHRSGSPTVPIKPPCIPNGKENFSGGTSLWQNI
T13 sequence (O96017 whole entry I157T): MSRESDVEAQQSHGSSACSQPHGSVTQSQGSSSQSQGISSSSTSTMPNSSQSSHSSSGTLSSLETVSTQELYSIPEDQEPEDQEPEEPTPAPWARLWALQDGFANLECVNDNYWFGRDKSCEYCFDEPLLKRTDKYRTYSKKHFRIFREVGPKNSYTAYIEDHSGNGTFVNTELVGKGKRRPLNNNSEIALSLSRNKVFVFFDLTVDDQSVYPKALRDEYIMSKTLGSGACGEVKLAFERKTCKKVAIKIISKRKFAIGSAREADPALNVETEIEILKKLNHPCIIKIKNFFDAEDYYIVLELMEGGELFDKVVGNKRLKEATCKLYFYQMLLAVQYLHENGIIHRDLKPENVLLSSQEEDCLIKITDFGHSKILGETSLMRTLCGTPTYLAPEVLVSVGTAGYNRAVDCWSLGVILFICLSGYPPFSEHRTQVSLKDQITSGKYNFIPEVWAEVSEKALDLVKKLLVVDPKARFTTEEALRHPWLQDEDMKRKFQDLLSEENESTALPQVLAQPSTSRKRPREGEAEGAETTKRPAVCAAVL
MAPKAP-K3 (h), sequence (Q16644 whole entry): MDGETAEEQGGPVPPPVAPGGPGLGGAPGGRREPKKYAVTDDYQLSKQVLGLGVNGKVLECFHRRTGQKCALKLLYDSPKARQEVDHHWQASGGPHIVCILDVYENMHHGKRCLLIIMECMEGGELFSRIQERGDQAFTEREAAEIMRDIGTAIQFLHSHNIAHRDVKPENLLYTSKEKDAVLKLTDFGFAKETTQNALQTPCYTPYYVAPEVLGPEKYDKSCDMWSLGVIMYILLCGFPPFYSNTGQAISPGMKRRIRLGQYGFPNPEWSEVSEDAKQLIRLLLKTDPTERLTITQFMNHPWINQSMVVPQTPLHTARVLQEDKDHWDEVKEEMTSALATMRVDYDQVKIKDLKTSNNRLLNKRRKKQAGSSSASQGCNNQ
ZIPK (h), sequence (O43293 whole entry): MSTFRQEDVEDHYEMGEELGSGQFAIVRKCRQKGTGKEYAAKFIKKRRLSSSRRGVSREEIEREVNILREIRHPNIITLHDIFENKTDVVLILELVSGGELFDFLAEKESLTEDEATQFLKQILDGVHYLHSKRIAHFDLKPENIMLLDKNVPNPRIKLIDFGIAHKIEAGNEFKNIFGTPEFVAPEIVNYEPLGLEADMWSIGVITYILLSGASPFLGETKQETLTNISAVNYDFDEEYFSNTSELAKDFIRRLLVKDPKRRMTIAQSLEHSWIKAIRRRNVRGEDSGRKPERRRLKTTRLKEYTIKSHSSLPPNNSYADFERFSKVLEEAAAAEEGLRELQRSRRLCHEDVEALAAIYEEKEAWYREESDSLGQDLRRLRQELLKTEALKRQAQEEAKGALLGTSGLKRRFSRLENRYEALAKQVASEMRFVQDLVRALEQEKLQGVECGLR
TrkA (h), sequence (P04629 33-796): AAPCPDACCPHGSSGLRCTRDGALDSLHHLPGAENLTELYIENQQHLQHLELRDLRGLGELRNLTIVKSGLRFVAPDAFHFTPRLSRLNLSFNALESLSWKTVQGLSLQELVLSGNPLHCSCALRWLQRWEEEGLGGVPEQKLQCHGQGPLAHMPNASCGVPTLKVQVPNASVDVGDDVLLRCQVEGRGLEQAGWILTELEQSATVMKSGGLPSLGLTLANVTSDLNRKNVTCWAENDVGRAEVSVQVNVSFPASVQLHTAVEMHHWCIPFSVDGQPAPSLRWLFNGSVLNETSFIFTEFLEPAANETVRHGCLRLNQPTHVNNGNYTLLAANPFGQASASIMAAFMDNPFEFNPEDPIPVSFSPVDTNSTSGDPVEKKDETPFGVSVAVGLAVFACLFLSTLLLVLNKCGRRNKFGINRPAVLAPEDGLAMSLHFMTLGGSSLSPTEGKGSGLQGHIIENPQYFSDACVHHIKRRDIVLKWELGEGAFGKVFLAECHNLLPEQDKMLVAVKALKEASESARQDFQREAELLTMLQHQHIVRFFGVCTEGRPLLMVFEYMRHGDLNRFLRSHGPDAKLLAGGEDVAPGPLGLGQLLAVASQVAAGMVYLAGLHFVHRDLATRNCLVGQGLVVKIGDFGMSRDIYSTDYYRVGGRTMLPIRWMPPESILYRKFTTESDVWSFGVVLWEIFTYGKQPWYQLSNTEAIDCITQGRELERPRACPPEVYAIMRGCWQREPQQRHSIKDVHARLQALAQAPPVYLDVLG
T10 sequence (Q8TDX7 whole entry): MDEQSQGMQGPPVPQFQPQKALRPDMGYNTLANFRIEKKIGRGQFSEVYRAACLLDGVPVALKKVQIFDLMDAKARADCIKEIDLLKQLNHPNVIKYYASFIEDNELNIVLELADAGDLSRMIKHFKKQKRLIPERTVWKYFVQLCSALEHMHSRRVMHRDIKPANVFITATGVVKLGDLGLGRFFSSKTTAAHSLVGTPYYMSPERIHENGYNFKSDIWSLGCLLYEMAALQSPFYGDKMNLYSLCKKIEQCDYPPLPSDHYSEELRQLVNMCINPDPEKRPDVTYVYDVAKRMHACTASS
SAPK2a (h), sequence (Q16539 whole entry): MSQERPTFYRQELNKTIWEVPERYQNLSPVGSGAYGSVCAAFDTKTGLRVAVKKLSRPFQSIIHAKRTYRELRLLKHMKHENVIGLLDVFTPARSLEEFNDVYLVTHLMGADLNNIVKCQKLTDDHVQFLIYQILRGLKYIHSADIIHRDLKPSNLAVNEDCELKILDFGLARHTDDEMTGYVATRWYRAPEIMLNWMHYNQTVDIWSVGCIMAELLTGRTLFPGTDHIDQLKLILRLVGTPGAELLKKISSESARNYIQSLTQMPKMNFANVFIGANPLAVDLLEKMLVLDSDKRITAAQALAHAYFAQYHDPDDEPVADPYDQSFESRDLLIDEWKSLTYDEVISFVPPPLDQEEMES
T7 sequence (P06493 whole entry): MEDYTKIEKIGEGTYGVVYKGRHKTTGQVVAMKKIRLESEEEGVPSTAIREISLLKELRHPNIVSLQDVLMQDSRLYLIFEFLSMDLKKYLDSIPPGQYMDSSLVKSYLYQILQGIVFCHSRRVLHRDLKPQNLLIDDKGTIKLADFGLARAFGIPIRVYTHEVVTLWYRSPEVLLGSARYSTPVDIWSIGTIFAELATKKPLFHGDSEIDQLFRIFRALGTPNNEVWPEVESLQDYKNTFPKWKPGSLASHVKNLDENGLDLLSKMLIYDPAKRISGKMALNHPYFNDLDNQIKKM
T7 sequence (P14635 whole entry partner): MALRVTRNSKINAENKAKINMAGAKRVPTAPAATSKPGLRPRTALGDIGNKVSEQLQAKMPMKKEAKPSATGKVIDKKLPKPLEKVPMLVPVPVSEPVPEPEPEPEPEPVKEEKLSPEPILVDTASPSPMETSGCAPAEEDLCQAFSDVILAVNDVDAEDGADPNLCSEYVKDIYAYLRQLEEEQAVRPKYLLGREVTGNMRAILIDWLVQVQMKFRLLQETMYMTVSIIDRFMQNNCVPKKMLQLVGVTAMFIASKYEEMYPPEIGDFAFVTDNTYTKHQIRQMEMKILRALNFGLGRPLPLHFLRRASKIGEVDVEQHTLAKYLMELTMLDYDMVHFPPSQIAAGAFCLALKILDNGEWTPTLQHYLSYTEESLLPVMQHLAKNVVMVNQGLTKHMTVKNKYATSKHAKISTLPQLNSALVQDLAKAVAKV
BTK(R28H) (h), sequence (Q06187 whole entry R28H): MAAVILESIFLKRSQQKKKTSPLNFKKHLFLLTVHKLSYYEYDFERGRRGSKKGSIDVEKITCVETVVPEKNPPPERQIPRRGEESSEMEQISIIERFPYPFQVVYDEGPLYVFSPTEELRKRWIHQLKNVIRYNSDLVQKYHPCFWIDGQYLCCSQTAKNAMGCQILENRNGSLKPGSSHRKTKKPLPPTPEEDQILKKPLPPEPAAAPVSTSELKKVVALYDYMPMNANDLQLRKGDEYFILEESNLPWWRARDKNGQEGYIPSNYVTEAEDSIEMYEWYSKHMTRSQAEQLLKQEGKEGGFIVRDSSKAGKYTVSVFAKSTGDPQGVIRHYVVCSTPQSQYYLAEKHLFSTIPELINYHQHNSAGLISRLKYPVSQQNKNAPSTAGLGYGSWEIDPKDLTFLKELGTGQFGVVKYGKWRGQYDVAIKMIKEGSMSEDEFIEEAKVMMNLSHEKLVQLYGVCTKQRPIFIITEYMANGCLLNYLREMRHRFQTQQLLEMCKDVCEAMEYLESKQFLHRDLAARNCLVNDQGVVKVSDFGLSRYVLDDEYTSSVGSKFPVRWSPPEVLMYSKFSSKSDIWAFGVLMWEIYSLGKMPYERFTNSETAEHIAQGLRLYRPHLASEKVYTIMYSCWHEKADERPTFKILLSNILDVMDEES

Sequence	% activity [1] [%]	% activity [2] [%]	% activity [3] [%]	% activity [4] [%]	% activity [5] [%]	% activity [6] [%]	% activity [7] [%]	% activity [8] [%]	% activity [9] [%]	% activity [10] [%]	% activity [11] [%]	% activity [12] [%]	% activity [13] [%]	% activity [17] [%]	% activity [18] [%]	% activity [19] [%]	% activity [20] [%]	% activity [21] [%]	% activity [23] [%]	% activity [26] [%]	further results
FAKLAARLYRKALARQLGVAA [MMI-0300]	28	3	80	54	98	82	80	74	70	25	128	81	126	79	45	84	78	1	43	28	% activity [14]: 73%; % activity [15]: 77%; % activity [16]: 74%; % activity [22]: 90%; % activity [24]: 134%; % activity [25]: 72%
HRRIKAWLKKIKALARQLGVAA (Mammalian) [MMI-0500]	3	9	45	9	92	90	65	47	59	24	95	40	194	59	4	89	1	1	3	1	% activity [14]: 57%; % activity [15]: 21%; % activity [16]: 10%; % activity [22]: 52%; % activity [24]: 223%; % activity [25]: 78%
KAFAKLAARLYRKALARQLGVAA [MMI-0400]	19	7	77	58	94	31	71	91	76	17	118	53	143	76	36	87	78	2	41	13	% activity [14]: 74%; % activity [15]: 77%; % activity [16]: 24%; % activity [22]: 85%; % activity [24]: 150%; % activity [25]: 72%
YARAAARQARAKALNRQLGVA (Mammalian) [MMI-0200]	75	39	94	88	91	149			56			137		92	95	96	98	2	85	67	
